B1: Protein THEMIS (Mus musculus), Q8BGW0 (parent)
chain: MALSLEEFVYSLDLRTLPRVLEIQSGIYFEGSVYEMFGNECCLSTGEVIKITGLKIKKMMAEICEGAIGGCESQKPFELPMNFPGLFKVMADKTPYLSIEEITRTVNIGPSRLGHPCFYHLKDIKLENLIIKQGEPIRFNSVEEINGETLVNCGVVRNHQSHSFTLPLSQEGEFYECEDEHIYTLKEIVEWKIPKNRTRTVKLTDFSNKWDSTNPFPEDFYGTLILKPVYEIQGVLKFQKDIVRILPSLDVEVKDITDSYDANWFLQLLSTDDLFEMTSKEFPVVAEVVEISQGNHLPQSILQREKTIVIHKKYQASRILASEIRSNFPKRHFLIPISYKGKFKRRPREFPTAYDLQIAKSRKETLHVVATKAFHTLHKELSPVSVGDQFLVHHSETTEVVFEGTRKVNVLTCEKVLNKTREDAQLPLYMEGGFVEVIHDKKQYQISELCTQFCWPFNVKVAVRDLSIKDDILAATPGLQLEEDITDSYLLISDFANPEECWEIPMSRLNMTVRLVNGSSLPADAGLLQVRSFVEEITEEQYYMMRRYESSLSHPPPRPPKHPSAEEMKLTLLSLAEERTINLPKSLKSHHVDRPKKLPSDESGQDSRAPVGFQNDVADVERQKSKHGPLQPQAPL
B2: Protein THEMIS (Homo sapiens), Q8N1K5-1 (parent)
chain: MALSLEEFVHSLDLRTLPRVLEIQAGIYLEGSIYEMFGNECCFSTGEVIKITGLKVKKIIAEICEQIEGCESLQPFELPMNFPGLFKIVADKTPYLTMEEITRTIHIGPSRLGHPCFYHQKDIKLENLIIKQGEQIMLNSVEEIDGEIMVSCAVARNHQTHSFNLPLSQEGEFYECEDERIYTLKEIVEWKIPKNRTRTVNLTDFSNKWDSTNPFPKDFYGTLILKPVYEIQGVMKFRKDIIRILPSLDVEVKDITDSYDANWFLQLLSTEDLFEMTSKEFPIVTEVIEAPEGNHLPQSILQPGKTIVIHKKYQASRILASEIRSNFPKRHFLIPTSYKGKFKRRPREFPTAYDLEIAKSEKEPLHVVATKAFHSPHDKLSSVSVGDQFLVHQSETTEVLCEGIKKVVNVLACEKILKKSYEAALLPLYMEGGFVEVIHDKKQYPISELCKQFRLPFNVKVSVRDLSIEEDVLAATPGLQLEEDITDSYLLISDFANPTECWEIPVGRLNMTVQLVSNFSRDAEPFLVRTLVEEITEEQYYMMRRYESSASHPPPRPPKHPSVEETKLTLLTLAEERTVDLPKSPKRHHVDITKKLHPNQAGLDSKVLIGSQNDLVDEEKERSNRGATAIAETFKNEKHQK
partner: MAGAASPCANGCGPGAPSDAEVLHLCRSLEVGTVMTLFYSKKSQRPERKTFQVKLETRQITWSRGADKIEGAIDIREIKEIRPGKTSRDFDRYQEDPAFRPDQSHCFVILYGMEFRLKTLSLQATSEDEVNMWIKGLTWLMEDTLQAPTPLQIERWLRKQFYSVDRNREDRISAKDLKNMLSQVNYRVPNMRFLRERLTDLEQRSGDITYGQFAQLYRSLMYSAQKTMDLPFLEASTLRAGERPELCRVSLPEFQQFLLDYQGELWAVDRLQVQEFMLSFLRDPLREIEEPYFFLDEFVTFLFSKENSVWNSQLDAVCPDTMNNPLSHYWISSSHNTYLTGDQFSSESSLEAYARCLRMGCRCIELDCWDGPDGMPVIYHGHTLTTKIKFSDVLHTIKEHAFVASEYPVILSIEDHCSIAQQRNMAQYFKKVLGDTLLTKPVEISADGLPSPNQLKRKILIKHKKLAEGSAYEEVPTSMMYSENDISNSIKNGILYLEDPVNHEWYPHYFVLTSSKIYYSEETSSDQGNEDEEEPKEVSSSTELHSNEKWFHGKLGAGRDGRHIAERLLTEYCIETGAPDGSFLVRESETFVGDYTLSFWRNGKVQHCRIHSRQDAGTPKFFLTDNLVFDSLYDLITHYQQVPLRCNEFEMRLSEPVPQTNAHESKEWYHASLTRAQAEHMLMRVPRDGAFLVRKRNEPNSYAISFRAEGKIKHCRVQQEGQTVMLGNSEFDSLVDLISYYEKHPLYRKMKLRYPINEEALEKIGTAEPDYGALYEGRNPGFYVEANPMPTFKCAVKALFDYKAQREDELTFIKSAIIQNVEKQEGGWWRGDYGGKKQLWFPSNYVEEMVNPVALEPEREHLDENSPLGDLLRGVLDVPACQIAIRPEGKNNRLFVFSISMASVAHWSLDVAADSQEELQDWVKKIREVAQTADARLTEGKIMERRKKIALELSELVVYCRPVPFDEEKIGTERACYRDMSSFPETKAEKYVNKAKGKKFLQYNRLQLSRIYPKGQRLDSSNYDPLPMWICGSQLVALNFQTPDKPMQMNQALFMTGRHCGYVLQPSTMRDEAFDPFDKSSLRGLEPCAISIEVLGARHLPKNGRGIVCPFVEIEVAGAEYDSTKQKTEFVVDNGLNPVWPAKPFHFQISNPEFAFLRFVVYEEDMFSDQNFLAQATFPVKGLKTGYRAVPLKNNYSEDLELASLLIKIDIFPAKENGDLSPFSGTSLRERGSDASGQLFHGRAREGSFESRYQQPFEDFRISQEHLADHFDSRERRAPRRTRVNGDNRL
B3: Protein THEMIS (Homo sapiens), Q8N1K5-1 (parent)
chain: B2 chain

Variants of: B1
Details: with grb2_human GRB2, P62993
Sequence of grb2_human GRB2, P62993 (P62993 whole entry, looked up): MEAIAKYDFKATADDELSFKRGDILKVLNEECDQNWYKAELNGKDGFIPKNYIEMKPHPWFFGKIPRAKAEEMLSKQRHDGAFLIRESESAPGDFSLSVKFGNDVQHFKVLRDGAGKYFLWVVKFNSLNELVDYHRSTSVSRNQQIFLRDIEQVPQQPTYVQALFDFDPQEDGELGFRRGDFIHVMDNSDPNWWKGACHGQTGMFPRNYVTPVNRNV

| Variant | effect of a mutation on the interaction |
| --- | --- |
| P557A;P560A | disrupting interaction strength |

Variants of: B2
Details: with plcg1_human PLCG1, P19174

| Variant | effect of a mutation on the interaction |
| --- | --- |
| P555A;P558A | decreasing interaction strength |

Variants of: B3
Details: with grb2_human GRB2, P62993

| Variant | effect of a mutation on the interaction |
| --- | --- |
| P557A | disrupting interaction strength |
| P554A | disrupting interaction strength |
| K559A | disrupting interaction strength |
| R556A | disrupting interaction strength |

Variants of: B3
Details: with grb2_human GRB2, P62993
Remark: another data set of the same source

| Variant | effect of a mutation on the interaction |
| --- | --- |
| Y540A;Y541A | with no effect |
| Y540F;Y541F | with no effect |

Variants of: B3
Details: with grb2_human GRB2, P62993
Remark: another data set of the same source

| Variant | effect of a mutation on the interaction |
| --- | --- |
| Y540F;Y541F | disrupting interaction strength |

Variants of: B3
Details: with grb2_human GRB2, P62993
Remark: another data set of the same source

| Variant | effect of a mutation on the interaction |
| --- | --- |
| P582A;P585A | with no effect |
| P555A;P558A | disrupting interaction strength |

Variants of: B3
Details: with grb2_human GRB2, P62993
Remark: another data set of the same source

| Variant | effect of a mutation on the interaction |
| --- | --- |
| P555A;P558A | disrupting interaction strength |

Reference: IntAct's records for PubMed 23460737
